Measured values from patent US9522945B2 (OPKO Biologics Ltd., priority 2012, dated 2016).
Like-named read-outs stand apart in the source and are kept apart here.

Legend:
C57BL/6 mice [1] = assay: IP glucose tolerance test (IPGTT); type: in vivo; settings: for effect on glucose levels / glucose tolerance, in words: Experiment 1, 100 nmol/kg IP 15 min prior to glucose IP (1.5 g/kg)
Procedure: Overnight-fasted mice were measured for glucose (pre-dose glucose). Immediately after, they were IP injected with one of the test articles. […] Blood glucose level were measured by tail vein sampling using a handheld glucometer.

C57BL/6 mice [2] = assay: Acute food intake study; type: in vivo
Procedure: At least one week before injection, mice were weighed and were transferred to a mini cage for acclimatization, (one mouse per cage). During the acclimatization period, they were handled daily and received two injections of vehicle to minimize stress during the study period. The day before the experiment, the mice were fasted. […] After injection, the mice were returned to their home cages (1 mouse per cage), and provided with a pre-weighed amount of chow. Food intake were measured 0, 1, 2, 4, 6, 8, 21, 32 and 44, 55, 68, 80, 93 and 141 h post injection by weighing the chow.
In this study, the acute effect on food intake was measured.

[3] = design: species or system rats; settings: rat, in vivo
Source text: Cohorts of 3 animals per group were bled at alternating time points. […] The study was divided into 3 sequential experiments, Experiment #1 (Groups 1-4), Experiment #2 (Groups 5-9) and Experiment #3 (Groups 10-13).
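Throughout, for CL: blood drawn at alternating time points, with three animals in each cohort.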
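Throughout, for Tmax: blood drawn at alternating time points, with three animals in each cohort.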
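Throughout, for Vd: blood drawn at alternating time points, with three animals in each cohort.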
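Throughout, for pharmacokinetic profile / PK parameters, comparison in words: blood drawn at alternating time points, with three animals in each cohort.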

| Molecule | pharmacokinetic profile / PK parameters, comparison in words [3] | CL ([3]; sc) [mL/min/kg] | Tmax ([3]; sc) [h] | Vd ([3]; sc) [L/kg] | Bioavailability [3] [%] | bioavailability as calculated from Experiments 1 & 2, change in words [3] | AUC(0-t) ([3]; iv, 230 ug/kg) [ng·h/mL] | AUC∞ ([3]; iv, 230 ug/kg) [ng·h/mL] | CL ([3]; iv, 230 ug/kg) [mL/min/kg] | MRT ([3]; iv, 230 ug/kg) [h] | T½ ([3]; iv, 230 ug/kg) [h] | T½β ([3]; iv, 230 ug/kg) [h] | AUC(0-t) ([3]; sc, 230 ug/kg) [ng·h/mL] | AUC∞ ([3]; sc, 230 ug/kg) [ng·h/mL] | CL ([3]; sc, 230 ug/kg) [mL/min/kg] | Cmax ([3]; sc, 230 ug/kg) [ng/mL] | MRT ([3]; sc, 230 ug/kg) [h] | Tmax ([3]; sc, 230 ug/kg) [h] | T½ ([3]; sc, 230 ug/kg) [h] | Vd ([3]; sc, 230 ug/kg) [L/kg] | further results |
| --- | --- | --- | --- | --- | --- | --- | --- | --- | --- | --- | --- | --- | --- | --- | --- | --- | --- | --- | --- | --- | --- |
| OXM-CTP-CTP-CTP-CTP: oxyntomodulin with four CTPs on the carboxy terminus, SEQ ID NO: 27 (protein, OXM-CTPx4) MATGSRTSLLLAFGLLCLPWLQEGSAHSQGTFTSDYSKYLDSRRAQDFVQWLMNTKRNRNNIASSSSKAPPPSLPSPSRLPGPSDTPILPQSSSSKAPPPSLPSPSRLPGPSDTPILPQSSSSKAPPPSLPSPSRLPGPSDTPILPQSSSSKAPPPSLPSPSRLPGPSDTPILPQ | superior in these parameters compared to other variants | 5.923 | 2.0 | 5.3796 |  |  |  |  |  |  |  |  |  |  |  |  |  |  |  |  | glucose tolerance activity when administered 120 min prior to glucose (C57BL/6 mice [1]; Experiment 2, 100 nmol/kg IP 120 min prior to glucose): induced glucose tolerance activity; inhibition of food intake, comparison in words (C57BL/6 mice [2]; single administration, mice): did not last as long as OXM-CTPx5 or OXM-CTPx3 |
| CTP-OXM-CTP-CTP: oxyntomodulin with one CTP on the amino terminus and two on the carboxy terminus, SEQ ID NO: 15 (protein, CTP-OXM-CTP-CTP) MATGSRTSLLLAFGLLCLPWLQEGSASSSSKAPPPSLPSPSRLPGPSDTPILPQHSQGTFTSDYSKYLDSRRAQDFVQWLMNTKRNRNNIASSSSKAPPPSLPSPSRLPGPSDTPILPQSSSSKAPPPSLPSPSRLPGPSDTPILPQ |  |  |  |  | 32.43 | increased | 968.2 | 977.4 | 3.623 | 0.80 | 0.28 | 1.61 | 313.98 | 320.86 | 11.038 | 30.18 | 6.62 | 6.00 | 4.39 | 4.13925 | Vd ([3]; iv, 230 ug/kg): 0.5064 L/kg |
| CTP-OXM-CTP: oxyntomodulin with one CTP on the amino terminus and one on the carboxy terminus, SEQ ID NO: 9 (protein, CTP-OXM-CTP) MATGSRTSLLLAFGLLCLPWLQEGSASSSSKAPPPSLPSPSRLPGPSDTPILPQHSQGTFTSDYSKYLDSRRAQDFVQWLMNTKRNRNNIASSSSKAPPPSLPSPSRLPGPSDTPILPQ |  |  |  |  | 24.44 | no significant improvement | 592.7 | 598.0 | 5.922 | 0.81 | 0.25 | 1.57 | 144.87 | 170.82 | 20.7328 | 31.11 | 4.73 | 1.00 | 3.28 | 5.88775 | effect on glucose levels / glucose tolerance, in words (C57BL/6 mice [1]): increased glucose levels; Vd ([3]; iv, 230 ug/kg): 0.8069 L/kg |
| OXM-CTP-CTP-CTP: oxyntomodulin with three CTPs on the carboxy terminus, SEQ ID NO: 25 (protein, OXM-CTPx3) MATGSRTSLLLAFGLLCLPWLQEGSAHSQGTFTSDYSKYLDSRRAQDFVQWLMNTKRNRNNIASSSSKAPPPSLPSPSRLPGPSDTPILPQSSSSKAPPPSLPSPSRLPGPSDTPILPQSSSSKAPPPSLPSPSRLPGPSDTPILPQ |  | 8.547 | 2.0 | 2.797 |  |  |  |  |  |  |  |  |  |  |  |  |  |  |  |  | T½ ([3]; sc): 3.78 h |
| OXM-CTP-CTP-CTP-CTP-CTP: oxyntomodulin with five CTPs on the carboxy terminus, SEQ ID NO: 29 (protein, OXM-CTPx5) MATGSRTSLLLAFGLLCLPWLQEGSAHSQGTFTSDYSKYLDSRRAQDFVQWLMNTKRNRNNIASSSSKAPPPSLPSPSRLPGPSDTPILPQSSSSKAPPPSLPSPSRLPGPSDTPILPQSSSSKAPPPSLPSPSRLPGPSDTPILPQSSSSKAPPPSLPSPSRLPGPSDTPILPQSSSSKAPPPSLPSPSRLPGPSDTPILPQ | superior in these parameters compared to other variants | 5.77 | 8 | 4.812 |  |  |  |  |  |  |  |  |  |  |  |  |  |  |  |  | cumulative food inhibition sustained for (C57BL/6 mice [2]; cumulative food intake, mice): at least 141 hrs; time for which food intake was reduced compared to vehicle (C57BL/6 mice [2]; single SC 1700 nmol/kg, male C57BL/6 mice): 5 days; duration of food intake inhibition, percentage of food intake per time interval (C57BL/6 mice [2]; time intervals over the experiment (FIG. 6B), single SC, male C57BL/6 mice): about 80 hours; T½ ([3]; sc): 9.63 h |
| OXM-CTP-CTP: oxyntomodulin with two CTPs in tandem on the carboxy terminus, SEQ ID NO: 21, expressed in CHO cells (protein, OXM-CTP-CTP) LEDMATGSRTSLLLAFGLLCLPWLQEGSAHSQGTFTSDYSKYLDSRRAQDFVQWLMNTKRNRNNIASSSSKAPPPSLPSPSRLPGPSDTPILPQSSSSKAPPPSLPSPSRLPGPSDTPILPQ | superior PK parameters as compared to the CTP-OXM-CTP-CTP variant |  |  |  |  |  |  |  |  |  |  |  | 697.00 | 702.10 | 5.045 | 50.90 | 8.20 | 6.00 | 4.76 | 2.0789 |  |
| CTP-CTP-OXM: oxyntomodulin with two CTPs on the amino terminus, SEQ ID NO: 23 (protein, CTPx2-OXM) MATGSRTSLLLAFGLLCLPWLQEGSASSSSKAPPPSLPSPSRLPGPSDTPILPQSSSSKAPPPSLPSPSRLPGPSDTPILPQHSQGTFTSDYSKYLDSRRAQDFVQWLMNTKRNRNNIARSGCGRGTLGLMGLPFTARFP |  |  |  |  | 23.36 | no significant improvement | 488.6 | 490.4 | 7.222 | 0.86 | 0.27 | 1.20 | 114.15 | 129.85 | 27.2758 | 27.77 | 4.10 | 1.00 | 2.74 | 6.45976 | effect on glucose levels / glucose tolerance, in words (C57BL/6 mice [1]): minor impact on glucose tolerance; Vd ([3]; iv, 230 ug/kg): 0.7481 L/kg |
